# Target: CD20 on Raji cells (CD20-positive human Burkitt's lymphoma cells) (human) (UniProt P11836)
# Experiment: cell-based or functional assay
# CD20 on Raji cells (CD20-positive human Burkitt's lymphoma cells) (human), sequence (P11836 whole entry): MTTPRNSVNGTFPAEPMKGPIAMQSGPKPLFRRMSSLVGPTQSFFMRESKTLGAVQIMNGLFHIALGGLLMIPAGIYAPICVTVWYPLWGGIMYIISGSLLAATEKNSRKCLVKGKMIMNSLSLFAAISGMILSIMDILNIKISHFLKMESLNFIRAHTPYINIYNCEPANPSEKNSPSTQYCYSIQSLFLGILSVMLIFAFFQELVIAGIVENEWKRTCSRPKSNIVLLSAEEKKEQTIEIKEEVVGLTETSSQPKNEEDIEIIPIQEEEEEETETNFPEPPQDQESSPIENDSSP
substance,measurement,value
isotype antibody (negative control),"EC50 for killing of Raji-luc cells by CIK effector cells, luciferase read-out",0.23 µg/mL
